The Kd is the concentration at which binding is half-saturated.

The values that follow come from article PMC4058522, “Structural Basis for Phosphorylation-Dependent Recruitment of Tel2 to Hsp90 by Pih1” (Structure(London, England:1993), 2014).

“Also recorded” adds a separate entry of the source.

The test system of one data set is human Hsp90β. Description: Hsp90 ATPase assay, human Hsp90β. The data set is classed as biochemical. The following applies: 10 μM Hsp90β, 40 μM RPAP3; % maximum activity of wild type.
The target in the next data set is full-length Hsp90 dimer. The data set is described as follows: ITC, Spagh/RPAP3 binding to full-length Hsp90 dimer. The conditions noted are these: 500 μM yeast Hsp90 into 20 μM Spagh/RPAP3^120–395, 10 mM Tris pH 7.5, 5 mM NaCl, ~1:2 molar ratio. As to the method:
Heat of interaction was measured on an ITC200 microcalorimeter (Microcal) under the same buffer conditions (20 mM Tris, pH 7.5, containing 5 mM NaCl). Aliquots of the Tel2 peptides at 350 μM were injected into 30 μM of Pih1 at 30°C. Interactions with Tah1 or Spagh/RPAP3^120–395 were performed in 10 mM Tris pH 7.5 and 5 mM NaCl at 10°C and 30°C. Aliquots of 600 μM Tah1 were injected into 40 μM of yeast Hsp90, 400 μM of SRMEEVD injected into 30 μM Tah1, 301 μM yeast Hsp90 injected into 25 μM yeast Tah1-Pih1 complex, and 400 μM SRMEEVD injected into 30 μM yeast Tah1-Pih1 complex. For Spagh/RPAP3^120–395 experiments, aliquots of 500 μM yeast Hsp90 were injected into 20 μM Spagh/RPAP3^120–395 or 2 mM […] into 80 μM Spagh/RPAP3^120–395 or mutants (N172E, N321E, and N172E-N321E). Heats of dilution were determined by diluting injectant into buffer. Data were fitted using a curve-fitting algorithm (Microcal Origin). ATPase assays were previously described ([Prodromou et al., 1999]).

B1: Spagh/RPAP3: tandem TPR region of human Spagh/RPAP3, residues 120–395 (protein)
chain: ESEEDGIHVDSQKALVLKEKGNKYFKQGKYDEAIDCYTKGMDADPYNPVLPTNRASAYFRLKKFAVAESDCNLAVALNRSYTKAYSRRGAARFALQKLEEAKKDYERVLELEPNNFEATNELRKISQALASKENSYPKEADIVIKSTEGERKQIEAQQNKQQAISEKDRGNGFFKEGKYERAIECYTRGIAADGANALLPANRAMAYLKIQKYEEAEKDCTQAILLDGSYSKAFARRGTARTFLGKLNEAKQDFETVLLLEPGNKQAVTELSKIKK
modifications: left off: GST, end not stated, state not stated
Take B1: the “effect on ATPase activity of human Hsp90β (in words)” value in the data set on human Hsp90β was “failed to show any strong regulatory effect; also recorded: no major effect”. In addition, on full-length Hsp90 dimer, the Kd is 6.8 µM.
